Consider two molecules from patent US20260234255A1 (Genmab, published 2026).

Substitutions are numbered along the chain they refer to.

Assay [1] has as its target T1, cynomolgus monkey (Macaca fascicularis) CD30 (cynomolgus monkey, UniProt P28908 19-595 (human entry)).
T1 construct: also called mfCD30
T1 chain: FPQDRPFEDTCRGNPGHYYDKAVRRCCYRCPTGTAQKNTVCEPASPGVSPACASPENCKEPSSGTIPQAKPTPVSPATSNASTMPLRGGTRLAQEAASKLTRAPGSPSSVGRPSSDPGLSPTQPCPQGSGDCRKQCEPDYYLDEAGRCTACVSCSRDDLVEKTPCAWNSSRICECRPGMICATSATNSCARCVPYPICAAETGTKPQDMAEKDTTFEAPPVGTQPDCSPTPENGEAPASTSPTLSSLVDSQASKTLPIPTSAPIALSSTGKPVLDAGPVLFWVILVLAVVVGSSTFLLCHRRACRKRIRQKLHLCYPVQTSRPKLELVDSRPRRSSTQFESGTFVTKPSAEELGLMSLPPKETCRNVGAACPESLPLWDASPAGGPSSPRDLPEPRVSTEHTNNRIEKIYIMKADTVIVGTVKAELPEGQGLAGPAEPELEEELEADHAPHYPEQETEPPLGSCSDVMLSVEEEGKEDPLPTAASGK
The experiment in a line: flow cytometry, Expi293F cells transfected with cynomolgus monkey CD30 (mfCD30). As for the experimental part:
Cells (3×10⁴ cells/well) were incubated in polystyrene 96-well round-bottom plates (Greiner bio-one, cat. no. 650180) with serial dilutions of antibodies (ranging from 0.005 to 10 μg/mL in 3-fold dilution steps) in 100 μL staining buffer at 4° C. for 30 min. Experiments were performed in technical duplicate. After washing twice in staining buffer, cells were incubated in 50 μL secondary antibody at 4° C. for 30 min. As a secondary antibody, R-PE-conjugated goat-anti-human IgG (Jackson ImmunoResearch, UK; cat. no. 109⁻¹¹⁶-098) diluted 1:400 in staining buffer was used. Cells were washed twice in staining buffer, resuspended in 30 μL staining buffer containing 0.4% EDTA and analyzed on an iQue Screener (Intellicyt Corporation, USA). Binding curves were analyzed using non-linear regression (sigmoidal dose-response with variable slope) using GraphPad Prism V9.0.0 software (GraphPad Software, San Diego, CA, USA).
In general terms: A flow cytometer gives signals particle by particle.

For assay [2], the target named is T2, human CD30 (human, UniProt P28908 19-595).
T2 construct: The same molecule is used for CD30 on HL/ALCL/NHL cell lines; also called huCD30; TNFRSF8
T2 sequence: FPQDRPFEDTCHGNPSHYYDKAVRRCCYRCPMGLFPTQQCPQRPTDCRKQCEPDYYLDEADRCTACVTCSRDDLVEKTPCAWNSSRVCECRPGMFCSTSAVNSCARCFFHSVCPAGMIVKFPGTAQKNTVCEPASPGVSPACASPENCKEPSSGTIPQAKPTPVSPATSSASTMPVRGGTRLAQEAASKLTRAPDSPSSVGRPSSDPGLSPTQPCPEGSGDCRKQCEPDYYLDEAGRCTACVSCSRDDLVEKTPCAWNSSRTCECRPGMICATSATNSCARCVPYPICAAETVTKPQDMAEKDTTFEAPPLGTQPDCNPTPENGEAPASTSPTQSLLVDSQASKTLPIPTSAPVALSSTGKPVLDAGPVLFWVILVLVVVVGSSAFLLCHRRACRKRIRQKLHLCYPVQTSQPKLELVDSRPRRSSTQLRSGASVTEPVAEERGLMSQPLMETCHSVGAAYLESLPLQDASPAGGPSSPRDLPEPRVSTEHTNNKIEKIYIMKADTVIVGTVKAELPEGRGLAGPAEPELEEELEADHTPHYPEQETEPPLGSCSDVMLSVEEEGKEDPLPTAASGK
As to the kind of experiment: flow cytometry, HDLM-2 cells.

For assay [3], the target named is T2, human CD30. As to the kind of experiment: flow cytometry, SU-DHL-1 cells. The procedure:
(§1) Binding of CD3×CD30 bispecific antibodies to two CD30-expressing human tumor cell lines SU-DHL-1 (ALCL; ATCC, cat. no. ACC 356) and HDLM-2 (HL; ATCC, cat. no. CRL-2965) was analyzed […] by flow cytometry.
(§2) Cells (3×10⁴ cells/well) were incubated in polystyrene 96-well round-bottom plates (Greiner bio-one, cat. no. 650180) with serial dilutions of antibodies (range 0.0046 to 10 μg/mL in 3-fold dilution steps) in 50 μL staining buffer at 4° C. for 30 min. After washing twice in staining buffer, cells were incubated with 50 μL secondary antibody at 4° C. for 30 min. […] Next, cells were washed twice in staining buffer, resuspended in 100 μL staining buffer supplemented with TO-PRO-3 iodide (Thermo Fisher Scientific; cat. no. T3605; 1:8000 dilution) and analyzed on a FACSCelesta flow cytometer (BD Biosciences, USA). Live cells were gated based on FSC/SSC and absence of TOPRO-3 staining. Binding curves were analyzed by non-linear regression of log-transformed data (sigmoidal dose-response with variable slope, four parameters) using GraphPad Prism V7.02 software (GraphPad Software, San Diego, CA, USA).

Assay [4] has as its target T2, human CD30. The experiment in a line: flow cytometry, DEL cells.
The target in assay [5] is T2, human CD30. The experiment in a line: flow cytometry, HDLM-2 cells. The procedure:
as §1, §2

For assay [6], the target named is T2, human CD30. The experiment in a line: flow cytometry, KI-JK cells.
The target of assay [7] is T2, human CD30. As to the kind of experiment: flow cytometry, DL-40 cells.
The target of assay [8] is T2, human CD30. The experiment in a line: flow cytometry, KM-H2 cells.
The target in assay [9] is T2, human CD30. The experiment in a line: flow cytometry, NCEB-1 cells.
Assay [10] deals with T2, human CD30. The experiment in a line: flow cytometry, L-82 cells.
Assay [11] has as its target T2, human CD30. As to the kind of experiment: flow cytometry, SR-786 cells.
In assay [12] the target is T2, human CD30. The experiment in a line: flow cytometry, HH cells. As for the experimental part: as §2
For assay [13], the target named is T2, human CD30. The experiment in a line: flow cytometry, L-540 cells.
Assay [14] addresses T2, human CD30. As to the kind of experiment: flow cytometry, SUP-M2 cells.
In assay [15] the target is T2, human CD30. As to the kind of experiment: flow cytometry, L-1236 cells.

B1: bsG1-b12-FEALxCD30-MDX060-FEAR (bispecific antibody, human IgG1, kappa)
heavy 1: QVQLVQSGAEVKKPGASVKVSCQASGYRFSNFVIHWVRQAPGQRFEWMGWINPYNGNKEFSAKFQDRVTFTADTSANTAYMELRSLRSADTAVYYCARVGPYSWDDSPQDNYYMDVWGKGTTVIVSSASTKGPSVFPLAPSSKSTSGGTAALGCLVKDYFPEPVTVSWNSGALTSGVHTFPAVLQSSGLYSLSSVVTVPSSSLGTQTYICNVNHKPSNTKVDKRVEPKSCDKTHTCPPCPAPEFEGGPSVFLFPPKPKDTLMISRTPEVTCVVVAVSHEDPEVKFNWYVDGVEVHNAKTKPREEQYNSTYRVVSVLTVLHQDWLNGKEYKCKVSNKALPAPIEKTISKAKGQPREPQVYTLPPSREEMTKNQVSLTCLVKGFYPSDIAVEWESNGQPENNYKTTPPVLDSDGSFLLYSKLTVDKSRWQQGNVFSCSVMHEALHNHYTQKSLSLSPG
light 1: EIVLTQSPGTLSLSPGERATFSCRSSHSIRSRRVAWYQHKPGQAPRLVIHGVSNRASGISDRFSGSGSGTDFTLTITRVEPEDFALYYCQVYGASSYTFGQGTKLERKRTVAAPSVFIFPPSDEQLKSGTASVVCLLNNFYPREAKVQWKVDNALQSGNSQESVTEQDSKDSTYSLSSTLTLSKADYEKHKVYACEVTHQGLSSPVTKSFNRGEC
heavy 2: QVQLQQWGAGLLKPSETLSLTCAVYGGSFSAYYWSWIRQPPGKGLEWIGDINHGGGTNYNPSLKSRVTISVDTSKNQFSLKLNSVTAADTAVYYCASLTAYWGQGSLVTVSSASTKGPSVFPLAPSSKSTSGGTAALGCLVKDYFPEPVTVSWNSGALTSGVHTFPAVLQSSGLYSLSSVVTVPSSSLGTQTYICNVNHKPSNTKVDKRVEPKSCDKTHTCPPCPAPEFEGGPSVFLFPPKPKDTLMISRTPEVTCVVVAVSHEDPEVKFNWYVDGVEVHNAKTKPREEQYNSTYRVVSVLTVLHQDWLNGKEYKCKVSNKALPAPIEKTISKAKGQPREPQVYTLPPSREEMTKNQVSLTCLVKGFYPSDIAVEWESNGQPENNYKTTPPVLDSDGSFFLYSRLTVDKSRWQQGNVFSCSVMHEALHNHYTQKSLSLSPG
light 2: DIQMTQSPTSLSASVGDRVTITCRASQGISSWLTWYQQKPEKAPKSLIYAASSLQSGVPSRFSGSGSGTDFTLTISSLQPEDFATYYCQQYDSYPITFGQGTRLEIKRTVAAPSVFIFPPSDEQLKSGTASVVCLLNNFYPREAKVQWKVDNALQSGNSQESVTEQDSKDSTYSLSSTLTLSKADYEKHKVYACEVTHQGLSSPVTKSFNRGEC
notes: Monovalent CD30 control
As a reminder, the EC50 (read off the curve) is the concentration at which the effect is half-maximal. For the molecule B1, the binding result in [1] is reported as “binds”. Also, the “EC50 (read off the curve)” value in assay [2] is around 0.1 µg/mL; in assay [3] it was around 0.4 µg/mL; in [4], around 0.2 µg/mL; in assay [5] it was around 0.3 µg/mL; in [6], around 0.2 µg/mL.

B2: IgG1-CD30-MDX060-FERR (antibody)
heavy: B1 heavy 2 with G231R, A260D
light: B1 light 2
notes: Monospecific, bivalent parental antibody; also called IgG1-huCD30-MDX060-FERR
Turning to B2, the concentration giving a half-maximal response (EC50 (read off the curve)) is around 0.07 µg/mL in [7]; around 0.06 µg/mL in [2]; around 0.04 µg/mL in assay [8]; around 0.04 µg/mL in assay [9]; around 0.07 µg/mL in assay [10]; around 0.1 µg/mL in [11]. For the same molecule, the “EC50 (read off the curve)” value in assay [12] is around 0.1 µg/mL; in [4] it was around 0.1 µg/mL; in [13], around 0.3 µg/mL; in assay [6], around 0.06 µg/mL; in assay [14] it was around 0.03 µg/mL; in [15] it was around 0.04 µg/mL.
